Tests used:
Type in all cases: cell-based
[1] = test system: DARC; assay: Luciferase reporter gene assay (protein kinase C-responsive promoter), COS-1 cells expressing DARC but not CXCR4; conditions: COS-1 cells expressing DARC alone; luciferase gene controlled by protein kinase C-responsive promoter
Description: (§1) A second group of COS-1 cells were made to express DARC, but not CXCR4. A third group of COS-1 cells were made to express CXCR4, but not DARC. Signaling due to stromal cell derived factor 1 (SDF-1) and GRO-α was measured in a reporter gene assay using a luciferase gene controlled by a protein kinase C-responsive promoter.
(§2) Cell Culture and Transfection. COS-1 cells are maintained in Dulbecco's modified eagle's medium with 5% fetal calf serum and are seeded 1 day prior to transfection at 750,000 cells/100 mm dish. Cells are transfected with pcDNA3.1 (Invitrogen) encoding DARC (5 μg DNA/ml) or with pcDNA3.1 encoding CXCR4 (5 μg DNA/ml), or both using the DEAE-dextran method and maintained in Dulbecco's modified Eagle's medium with 10% fetal calf serum for 1 day at which time cells are harvested and seeded into 12-well plates at 100,000 cells/well or 24-well plates at 50,000 cells/well in Dulbecco's modified Eagle's medium with 5% fetal calf serum. Other cell lines, such as HEK-293 or CHO cells, can be stably transfected with DARC or CXCR4, or both.
(§3) Reporter Gene Assays. […] Agonists or agonists plus antagonists are added for four hours and the reporter activity measured. […]

[2] = target: T1, CXCR4 (Homo sapiens, UniProt P61073); assay: Luciferase reporter gene assay (protein kinase C-responsive promoter), COS-1 cells expressing CXCR4 but not DARC; conditions: COS-1 cells expressing CXCR4 alone; luciferase gene controlled by protein kinase C-responsive promoter
T1 construct: expressed in transfected cells; host or cells: COS-1 cells, transient DEAE-dextran transfection with pcDNA3.1 encoding CXCR4
Description: as §1, §2, §3

[3] = target: T2, DARC and CXCR4 (Homo sapiens, UniProt Q16570); assay: Luciferase reporter gene assay (protein kinase C-responsive promoter), COS-1 cells co-expressing DARC and CXCR4; conditions: single chemokine
T2 construct: expressed in transfected cells; host or cells: COS-1 cells co-transfected (DEAE-dextran) with pcDNA3.1 encoding DARC and pcDNA3.1 encoding CXCR4
T2 sequence (Q16570 1-336): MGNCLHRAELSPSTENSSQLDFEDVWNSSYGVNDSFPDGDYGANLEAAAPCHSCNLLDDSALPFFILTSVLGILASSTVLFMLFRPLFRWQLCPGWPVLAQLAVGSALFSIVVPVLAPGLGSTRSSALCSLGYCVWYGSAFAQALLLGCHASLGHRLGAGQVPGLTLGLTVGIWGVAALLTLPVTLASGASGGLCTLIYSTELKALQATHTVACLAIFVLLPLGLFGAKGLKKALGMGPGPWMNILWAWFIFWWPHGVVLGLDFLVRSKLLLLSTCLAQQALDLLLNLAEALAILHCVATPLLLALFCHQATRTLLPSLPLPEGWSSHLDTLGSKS
Description: as §1, §2, §3

T1 sequence (P61073 whole entry): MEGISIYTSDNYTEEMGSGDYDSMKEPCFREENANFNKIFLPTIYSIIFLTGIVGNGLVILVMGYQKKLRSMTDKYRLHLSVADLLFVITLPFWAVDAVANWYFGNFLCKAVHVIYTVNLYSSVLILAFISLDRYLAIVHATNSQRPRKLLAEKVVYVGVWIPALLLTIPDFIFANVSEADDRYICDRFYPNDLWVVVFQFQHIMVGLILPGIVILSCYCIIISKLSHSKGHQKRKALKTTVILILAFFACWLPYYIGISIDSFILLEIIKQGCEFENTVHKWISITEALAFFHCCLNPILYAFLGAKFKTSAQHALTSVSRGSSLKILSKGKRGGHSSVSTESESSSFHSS

| Signaling in reporter gene assay via CXCR4 [2] | Signaling (gene transcription) in reporter gene assay [3] | Substance | Signaling in reporter gene assay via DARC [1] |
| --- | --- | --- | --- |
| did not signal | increase gene transcription | growth-related protein-α [GRO-α] | did not signal |
| signals weakly | – | stromal cell derived factor 1 [SDF-1] | does not signal |

From patent US6365356B1, “Receptors that regulate cell signaling relating to chemokines” (Cornell Research Foundation, Inc., priority 1999, dated 2002)
